Nine molecules from patent US20240158505A1 (published 2024) can be followed below.

The EC50 is the concentration that produces a half-maximal response.

B1: #2 antibody (antibody, V domains shown)
VH: EVQLLESGGGLVQPGGSLRLSCAASGFTFSAYYMIWVRQAPGKGLEWVSITNPSGGVTSYAQKFQGRFTISRDNSKNTLYLQMNSLRAEDTAVYYCARVGGRGFDIWGQGTLVTVSS
VL: EIVLTQSPGTLSLSPGERATLSCHASQGISNYVAWYQQKPGQAPRLLIYDASNRATGIPDRFSGSGSGTDFTLTISHLEPEDFAVYYCQQSYSTLLTFGQGTKVEIK
B2: #1 antibody (antibody, V domains shown)
VH: EVQLLESGGGLVQPGGSLRLSCAASGFTFSSYAMSWVRQAPGKGLEWVSTITGSGGSTYYADSVKGRFTISRDNSKNTLYLQMNSLRAEDTAVYYCARYKSGAFDIWGQGTLVTVSS
VL: EIVLTQSPGTLSLSPGERATLSCRASQGIGNYLGWYQQKPGQAPRLLIYTASSLQSGIPDRFSGSGSGTDFTLTISRLEPEDFAVYYCQQGYSTPSWTFGQGTKVEIK
B3: #8 antibody (antibody, V domains shown)
VH: EVQLLESGGGLVQPGSSLRLSCAASGFTFSSYWISWVRQAPGKGLEWVSEISPSGNTNYNPSLKSRFTISRDNSKNTLYLQMNSLRAEDTAVYYCAREVGDLLDYWGQGTLVTVSS
VL: QSVLTQPPSASGTPGQRVTISCSGSNIGNNYVSWYQQLPGTAPKLLIYQDSKRPSGVPDRFSGSKSGTSASLAISGLRSEDEADYYCLVWDRSSDHFVFGGGTKLTVL
B4: #6 antibody (antibody, V domains shown)
VH: EVQLLESGGGLVQPGGSLRLSCAASGFTFSTYAISWVRQAPGKGLEWVSSIYYSGYTHYNPSLESRFTISRDNSKNTLYLQMNSLRAEDTAVYYCARGYSGWMDVWGQGTLVTVSS
VL: QSVLTQPPSASGTPGQRVTISCGGNNIGSKSVHWYQQLPGTAPKLLIYDNNKRPSGVPNRFSGSKSGTSASLAISGLRSEDEADYYCAAWDDSLNVPVFGGGTKLTVL
B5: #9 antibody (antibody, V domains shown)
VH: EVQLLESGGGLVQPGGSLRLSCAASGFTFSSYAMNWVRQAPGKGLEWVSTISGSGGQTYYADSVKGRFTISRDNSKNTLYLQMNSLRAEDTAVYYCARWRSIWAFDYWGQGTLVTVSS
VL: B4 VL with G23S, G24D, N59D, A88G, A89T, N95S, V96G
B6: #7 antibody (antibody, V domains shown)
VH: EVQLLESGGGLVQPGGSLRLSCAASGFTFSNFWIGWVRQAPGKGLEWVSWINPPGSITSYADSVKGRFTISRDNSKDTLYLQMNSLRAEDTAVYYCAREVGDVLDYWGQGTLVTVSS
VL: QSVLTQPPSASGTPGQRVTISCTGTSSDIGRYNYVSWYQQLPGTAPKLLIYRNTQRPSGVPDRFSGSKSGTSASLAISGLRSEDEADYYCGTWDSSLNAYVFGGGTKLTVL
B7: #4 antibody (antibody, V domains shown)
VH: EVQLLESGGGLVQPGGSLRLSCAASGFTFSSYGMHWVRQAPGKGLEWVSAISGSGTSIYYANSVKSRFTISRDNSKNTLYLQMNSLRAEDTAVYYCARGAGWFDYWGQGTLVTVSS
VL: QSVLTQPPSASGTPGQRVTISCSGSTSNIGSNTVNWYQQLPGTAPKLLIYGKNIRPNGVPDRFSGSKSGTSASLAISGLHSEDEADYYCQSYDSSLSGWVFGGGTKLTVL
B8: #5 antibody (antibody, V domains shown)
VH: EVQLLESGGGLVQPGGSLRLSCAASGFTFSTYAMSWVRQAPGKGLEWVSAISGSGGSTLYADSVKGRFTISRDNSKNTLYLQMNSLRAEDTAVYYCARGGSATWAFDLWGQGTLVTVSS
VL: QSVLTQPPSASGTPGQRVTISCSGSSSNIGSNYVYWYQQLPGTAPKLLIYRNNQRPSGVPDRFSGSKSGTSASLAISGLRSEDEADYYCGTWDSSLSGVVFGGGTKLTVL
B9: #3 antibody (antibody, V domains shown)
VH: EVQLLESGGGLVQPGGSLRLSCAASGFTFSTYYMTWVRQAPGKGLEWVSIINPRGGSTSYAEKFQGRFTISRDNSKNTLYLQMNSLRAEDTAVYYCARWNLGMDVWGQGTLVTVSS
VL: EIVLTQSPGTLSLSPGERATLSCRVSQSISSYLNWYQQKPGQAPRLLIYDASHRATGIPDRFSGSGSGTDFTLTISRLEPEDFAVYYCQQYYAPSVTFGQGTKVEIK

Where a chain is given by its changes, count along the chain named.

Sequence of B7-H3 expressed on the cell membrane (MCF-7, RKO and RKO/B7H3 cell lines) (Q5ZPR3 29-534): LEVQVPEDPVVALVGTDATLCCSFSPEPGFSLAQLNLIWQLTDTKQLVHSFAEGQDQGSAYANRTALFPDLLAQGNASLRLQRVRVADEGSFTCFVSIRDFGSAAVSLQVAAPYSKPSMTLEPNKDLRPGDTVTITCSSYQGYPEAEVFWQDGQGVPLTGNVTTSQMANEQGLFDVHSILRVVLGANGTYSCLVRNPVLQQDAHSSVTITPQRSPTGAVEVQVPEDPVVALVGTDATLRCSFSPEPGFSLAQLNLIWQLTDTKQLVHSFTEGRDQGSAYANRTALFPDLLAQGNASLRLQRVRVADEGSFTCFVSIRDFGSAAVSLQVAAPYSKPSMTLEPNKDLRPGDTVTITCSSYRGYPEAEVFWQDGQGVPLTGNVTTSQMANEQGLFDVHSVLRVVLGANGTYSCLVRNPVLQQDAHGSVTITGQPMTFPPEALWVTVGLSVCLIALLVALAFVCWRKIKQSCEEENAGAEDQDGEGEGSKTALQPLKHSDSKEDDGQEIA

One assay concerns the target B7-H3 expressed on the cell membrane (MCF-7, RKO and RKO/B7H3 cell lines) (UniProt Q5ZPR3). As to the kind of experiment: cell ELISA on fixed MCF-7 cells. A general note: ELISA stands for enzyme-linked immunosorbent assay.
On to B1, for which the EC50 is 0.061 nM.

For B2, the EC50 stood at 0.605 nM.

As for B3, the half-maximal effective concentration (EC50) was 0.159 nM.

As for B4, the EC50 came to 0.234 nM.

With B5, the concentration for a half-maximal effect (EC50) was determined as 0.322 nM.

B6 showed an EC50 of 1.01 nM.

B7 gave an EC50 of 0.502 nM.

B8 displayed a 50% effective concentration (EC50) of 1.74 nM.

B9 yielded an EC50 of 0.197 nM.

The target is the same in the next assay. As to the kind of experiment: cell ELISA on fixed RKO/B7H3 cells.
In turn, B1 returned an EC50 of 0.036 nM.

B2 returned an EC50 of 0.015 nM.

In turn, B3 gave a concentration giving a half-maximal response (EC50) of 0.06 nM.

With B4, the EC50 was 0.065 nM.

B5 displayed an EC50 of 0.05 nM.

B6: the concentration giving a half-maximal response (EC50) is 0.187 nM.

On to B7, for which the EC50 was 0.042 nM.

B8 yielded a concentration for a half-maximal effect (EC50) of 0.091 nM.

The molecule B9 displayed an EC50 of 0.065 nM.

For the next assay, the target named is T1, Recombinant Human B7-H3 Fc chimera Protein (Rndsystem, Cat #1027-B3-100) (human, UniProt Q5ZPR3 29-245).
T1 chain: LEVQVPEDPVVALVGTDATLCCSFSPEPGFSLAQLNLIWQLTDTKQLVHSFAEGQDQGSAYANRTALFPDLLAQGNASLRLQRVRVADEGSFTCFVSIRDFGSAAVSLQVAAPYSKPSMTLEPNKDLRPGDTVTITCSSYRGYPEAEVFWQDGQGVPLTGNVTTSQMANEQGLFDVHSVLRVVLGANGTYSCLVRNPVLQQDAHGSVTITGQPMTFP
Put plainly: ELISA.
Take B1: the 50% effective concentration (EC50) was determined as 0.42 nM.

On to B2, for which the EC50 was found to be 0.18 nM.

Turning to B3, the concentration for a half-maximal effect (EC50) came out at 0.63 nM.

For B4, the EC50 came out at 1.86 nM.

On to B5, for which the 50% effective concentration (EC50) is 1.1 nM.

In the case of B6, the EC50 amounted to 1.8 nM.

Turning to B7, the EC50 was determined as 0.55 nM.

In the case of B8, the concentration for a half-maximal effect (EC50) turned out to be 1.2 nM.

With B9, the concentration for a half-maximal effect (EC50) worked out at 1.1 nM.
